Source: patent US9266964

Target: T1, human plasma kallikrein (human, UniProt P03952 20-390; P03952 391-638)
T1 construct: two disulfide-linked chains; also called pKal; human pKal
Experiment: ELISA; signal on coated biotinylated human plasma kallikrein divided by signal on streptavidin; Fab
Source text: Abbreviations used: "T/B" is the ELISA signal obtained using of the target (biotinylated plasma kallikrein) divided by the ELISA signal of the "background" (streptavidin); both of which were coated on microtiter plates. "nd" is not determined. The symbol "q" refers to the amber suppressible stop codon (TAG), which is translated as glutamine (Q) in strains of E. coli such as the TG1 cells that were used to express the Fab fragments.

T1 sequence (P03952 20-390, chain 1 of 2): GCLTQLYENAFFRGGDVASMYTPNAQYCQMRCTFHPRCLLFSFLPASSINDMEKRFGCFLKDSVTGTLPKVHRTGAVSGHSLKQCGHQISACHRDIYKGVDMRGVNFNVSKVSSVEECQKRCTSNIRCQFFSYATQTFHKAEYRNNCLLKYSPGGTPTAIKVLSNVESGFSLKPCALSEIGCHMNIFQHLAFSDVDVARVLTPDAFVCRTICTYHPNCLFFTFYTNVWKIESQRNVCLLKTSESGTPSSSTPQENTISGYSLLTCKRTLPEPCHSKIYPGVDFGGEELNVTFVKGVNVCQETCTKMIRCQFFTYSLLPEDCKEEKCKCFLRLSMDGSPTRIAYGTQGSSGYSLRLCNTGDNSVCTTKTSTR
T1 sequence (P03952 391-638, chain 2 of 2): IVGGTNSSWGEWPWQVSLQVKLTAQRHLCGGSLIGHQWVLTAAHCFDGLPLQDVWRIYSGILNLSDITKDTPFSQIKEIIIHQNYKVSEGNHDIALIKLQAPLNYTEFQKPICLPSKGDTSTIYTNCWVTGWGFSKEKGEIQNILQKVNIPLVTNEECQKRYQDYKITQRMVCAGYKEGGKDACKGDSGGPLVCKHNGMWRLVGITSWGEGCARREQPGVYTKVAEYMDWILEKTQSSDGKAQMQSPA

| Human pKal ELISA (T/B) | Binder |
| --- | --- |
| 10.3 T/B (target signal / background signal) | M76-G02 (Fab, V domains shown, Fab fragment (E. coli TG1); printed HC runs into the start of CH1) VH: EVQLLESGGGLVQPGGSLRLSCAASGFTFSLYAMWWVRQAPGKGLEWVSYISSSGGFTSYADSVKGRFTISRDNSKNTLYLQMNSLRAEDTAVYYCARYRVGVAATDYWGQGTLVTVSS VL: not shown |
| 11.8 T/B (target signal / background signal) | M76-G06 (Fab, V domains shown, Fab fragment (E. coli TG1); printed HC runs into the start of CH1) VH: EVQLLESGGGLVQPGGSLRLSCAASGFTFSGYIMHWVRQAPGKGLEWVSWIYPSGGWTEYADSVKGRFTISRDNSKNTLYLQMNSLRAEDTAVYYCARDAPGVGAIDYWGQGTLVTVSS VL: DIQMTQSPSSLSASVRDRVTITCRASQSISTYLNWYQQKPGEAPKLLVFAASSLQSGVPSRFSGSGSGTDFTLSISSLQPEDFATYYCQQSYSTPHTFGQGAKVEIK |
| 23.6 T/B (target signal / background signal) | M29-D10 (Fab, V domains shown, Fab fragment (E. coli TG1); printed HC runs into the start of CH1) VH: EVQLLESGGGLVQPGGSLRLSCAASGFTFSWYPMYWVRQAPGKGLEWVSSIGSSGGPTPYADSVKGRFTISRDNSKNTLYLQMNSLRAEDTAVYYCARWADYGGSLDYWGQGTLVTVSS VL: DIQMTQSPSSLSASVGDTVSITCRASQSITIYLNWYQHKPGKAPNLLIYGASNLHSGVPSRFSGSGSGTDFTLTISSLQPEDFATYYCQQSYDTPLTFGGGTKVEIK |
| 41.6 T/B (target signal / background signal) | M28-D12 (Fab, V domains shown, Fab fragment (E. coli TG1); printed HC runs into the start of CH1) VH: EVQLLESGGGLVQPGGSLRLSCAASGFTFSWYTMHWVRQAPGKGLEWVSVIYPSGGPTSYADSVKGRFTISRDNSKNTLYLQMNSLRAEDTATYYCARDGSGSYLGFDYWGQGTLVTVSS VL: DIQMTQSPSSLSASVGDRVTITCRASQSIATYLNWYQQKPGRAPKLLIYAASSLQSGVPSRFVGGGSGSGTHFTLTISSLQPEDFATYYCQQSYSTRETFGQGTKVEIK |
| 16.4 T/B (target signal / background signal) | M29-G10 (Fab, V domains shown, Fab fragment (E. coli TG1); printed HC runs into the start of CH1) VH: EVQLLESGGGLVQPGGSLRLSCAASGFTFSFYKMIWVRQAPGKGLEWVSSISSSGGSTQYADSVKGRFTISRDNSKNTLYLQMNSLRAEDTAVYYCARDRVDLGYLDYWGQGTLVTVSS VL: DIQMTQSPSSLSSSVGDSATITCRASQSISIYLNWYQQKPGKAPKILIYGASQLESGVPSRFSGSGSGTDFTLTVSGLQPEDFATYWCQQSYNVPYTFGQGTKLEIK |
| 6.4 T/B (target signal / background signal) | M76-F02 (Fab, V domains shown, Fab fragment (E. coli TG1); printed HC runs into the start of CH1) VH: EVQLLESGGGLVQPGGSLRLSCAASGFTFSLYDMNWVRQAPGKGLEWVSGISPSGGQTMYADSVKGRFTISRDNSKNTLYLQMNSLRAEDTAVYYCARQPMISAFDIWGQGTMVTVSS VL: DIQMTQSPSSLSASVGDRVTITCRASQTIDNYLHWYQQKPGKAPKVLIHDASSLQSGVPPRFSGSGSGTDFTLTISSLQPEDFATYYCQQSYDTPQYTFGQGTKLEIK |
| 3.7 T/B (target signal / background signal) | M28-D02 (Fab, V domains shown, Fab fragment (E. coli TG1); printed HC runs into the start of CH1; The LC is printed with an amber codon 'q' (QDIqMTQ), written here as Q) VH: EVQLLESGGGLVQPGGSLRLSCAASGFTFSWYPMQWVRQAPGKGLEWVSYIYPSGGGTDYADSVKGRFTISRDNSKNTLYLQMNSLRAEDTATYYCATSSGWLGDAFDIWGQGTMVTVSS VL: DIQMTQSPSSLSASEGDMVTITCRTSRRIGTYLNWYQQKPGKAPKLLIYGASSLQSGVPSRFSGSGSGTDFTLTVSSLQPEDVGTYYCQQSFSSPWTFGPGTKVEIK |
| 13.4 T/B (target signal / background signal) | M76-H02 (Fab, V domains shown, Fab fragment (E. coli TG1); printed HC runs into the start of CH1) VH: EVQLLESGGGLVQPGGSLRLSCAASGFTFSMYWMQWVRQAPGKGLEWVSYIYPSGGPTKYADSVKGRFTISRDNSKNTLYLQMNSLRAEDTAVYYCARPSGSYGDAFDIWGQGTMVTVSS VL: DIQMTQSPSSLSASEGDRVTITCRASQDISVYLNWYQMKSGKAPKLLIYGGASLQSGVPARFSGSGYGTDFTLTITDLRPEDFATYYCQQSYSLPFTFGGGTKVEIK |
| 16.1 T/B (target signal / background signal) | M77-C07 (Fab, V domains shown, Fab fragment (E. coli TG1); printed HC runs into the start of CH1) VH: EVQLLESGGGLVQPGGSLRLSCAASGFTFSLYIMGWVRQAPGKGLEWVSGIYPSGGFTMYADSVKGRFTISRDNSKNTLYLQMNSLRAEDTAVYYCARESSGVAAPDYWGQGTLVTVSS VL: DIQMTQSPSTLSASVGDRVTITCRASQNISSYLNWYQQKPGKAPKLLIYAASSLQSGVPSRFSGSGSGTDFTLTISSLQPEDFATYSCQQSYSTPRTFGQGTKVEIK |

Continued, binder first:

| Binder | Human pKal ELISA (T/B) |
| --- | --- |
| M28-A01 (Fab, V domains shown, Fab fragment (E. coli TG1); printed HC runs into the start of CH1) VH: EVQLLESGGGLVQPGGSLRLSCAASGFTFSWYAMHWVRQAPGKGLEWVSGIYSSGGYTKYADSVKGRFTISRDNSKNTLYLQMNSLRAEDTAVYYCARDLSNGDDVFDIWGQGTMVTVSS VL: not shown | 19 T/B (target signal / background signal) |
| M29-C07 (Fab, V domains shown, Fab fragment (E. coli TG1); printed HC runs into the start of CH1) VH: EVQLLESGGGLVQPGGSLRLSCAASGFTFSGYDMMWVRQAPGKGLEWVSVISSSGGNTAYADSVKGRFTISRDNSKNTLYLQMNSLRAEDTAVYYCARESSGLYYFDYWGQGTLVTVSS VL: not shown | 5.2 T/B (target signal / background signal) |
| M28-F07 (Fab, V domains shown, Fab fragment (E. coli TG1); printed HC runs into the start of CH1) VH: EVQLLESGGGLVQPGGSLRLSCAASGFTFSDYTMYWVRQAPGKGLEWVSSIVPSGGHTLYADSVKGRFTISRDNSKNTLYLQMNSLRAEDTAVYYCAKDHLSSWYGGFFDYWGQGTLVTVSS VL: DIQMTQSPSSVSASVGDRVTITCRASQGISSWLAWYQQKPGKAPKLLIYATSGLQSGVPSRFSGSGSGTDFTLTISSLQPEDFATYYCQQAKSFPLTFGGGTRVEIK | 33 T/B (target signal / background signal) |
| M29-G08 (Fab, V domains shown, Fab fragment (E. coli TG1); printed HC runs into the start of CH1) VH: EVQLLESGGGLVQPGGSLRLSCAASGFTFSYYHMWWVRQAPGKGLEWVSGISPSGGFTFYADSVKGRFTISRDNSKNTLYLQMNSLRAEDTAVYYCARDYYYDSSGYSPLGYWGQGTLVTVSS VL: DIQMTQSPATLSASPGETVTLSCRASQNIGNDVAWYRQRPGQAPRLLIHHASTRAYGIPARLRGSGSATEFTLTITSLEPEDFAIYYCQQFYDWPAHTFALGTRLEIKR | 40.4 T/B (target signal / background signal) |
| M28-E11 (Fab, V domains shown, Fab fragment (E. coli TG1); printed HC runs into the start of CH1) VH: EVQLLESGGGLVQPGGSLRLSCAASGFTFSLYDMTWVRQAPGKGLEWVSGISSSGGVTIYADSVKGRFTISRDNSKNTLYLQMNSLRAEDTAVYYCARTYYYDSSGYADAFDIWGQGTMVTVSS VL: DIQMTQSPSSVSASVGDRVTINCRASQDISNWLAWYQQKPGKAPNLLIYAASSLQTGAPSRFSGSGSGTDFTLTISSLQPEDFGTYVCQQSYSLPWTFGLGTKVEVR | 29.3 T/B (target signal / background signal) |
| M74-A07 (Fab, V domains shown, Fab fragment (E. coli TG1); printed HC runs into the start of CH1) VH: EVQLLESGGGLVQPGGSLRLSCAASGFTFSQYLMMWVRQAPGKGLEWVSSIYPSGGYTSYADSVKGRFTISRDNSKNTLYLQMNSLRAEDTAVYYCARVSTAVADNDYWGQGTLVTVSS VL: DIQMTQSPSSLSASVRDRVTITCRTSQNINTYLNWYYQAPGRAPKLLIFGVSSLHRGVSSRFSGSGDGTEFTLTISSLQPEDIGTYFCQQSYSSPWTFGQGTKVEIK | 8.6 T/B (target signal / background signal) |
| M28-C03 (Fab, V domains shown, Fab fragment (E. coli TG1); printed HC runs into the start of CH1) VH: EVQLLESGGGLVQPGGSLRLSCAASGFTFSYYQMGWVRQAPGKGLEWVSSIYPSGGMTDYADSVKGRFTISRDNSKNTLYLQMNSLRAEDTAVYYCTRGSPWGDDAFDIWGQGTMVTVSS VL: DIQMTQSPSSLSASVGDRVTITCRASQSINFYLNWYQQKPGKAPKLLIYVASSLESGVPSRFSGSASGTEFTLTISSLQPEDFATYYCLQSYSAPYTFGQGTKVEIT | 2.2 T/B (target signal / background signal) |
| M28-E01 (Fab, V domains shown, Fab fragment (E. coli TG1); printed HC runs into the start of CH1) VH: EVQLLESGGGLVQPGGSLRLSCAASGFTFSSYPMGWVRQAPGKGLEWVSRISSSGGMTIYADSVKGRFTISRDNSKNTLYLQMNSLRAEDTAVYYCARDDWNVGMDVWGQGTTVTVSS VL: DIQMTQSPSSLSASVGDRVTITCRASQSISSYLNWYQQKPGKAPKLLIYAASSLQSGVPSKFSGSGSGTDYTLTISSLQPEDFATYYCQQTYTTPWTFGQGTKVEIK | 41 T/B (target signal / background signal) |
